Test results as given in the DeepSol protein solubility set.

Assay: soluble on expression in E. coli; label from the status in PepcDB or PDB records

| Sequence | soluble on expression in E. coli |
| --- | --- |
| MRTSDSHLPLSNLARSDSIEFKDAVINEKWVHSANRRKGHLTPKAPEKKSGWFGGQKSEEELLMERVEQHELEELQTFIAQKLFRVDGIICDEETRILLVEKLMNAKEYPTINHDELAHRYGSSMAGWLRDRLVPSMSDCSSVLQRAAAEFYQNKMSDPLCNWGQLNPEHVSMVAARIAKFSEEMSSKVKWSLLVEPGKFSCHLTEFVQEFNRLDRMFVSNELSDEESLQTAFNANYLTKARSKMVPCAEFSRVKLNDGLGRLDDRNELRNGMFSDEHEFLQEEGYTAKSTYGTTDFIHANYVKGGPLLNTFICAQAPLKNTQEDFWRMVFQEKCQFIVMLNSAVDSSTLGPLDSANRNHCPYYWPRAENESLRFGSFHITCMKVDSKADPLFTITKLKVQKVGGNLLDAEFDEELFLEHWQWDWQYLGDVHWPFRVLRKARQLSTPTIVQCIDGCSKSGTLVSIETALMHFIRGSPITKSLILQSCVFVRLQRRLSVSSVLLYLFIYRVILRWIEPYVNKWYHRAALGLRFKSIGFIQKYNAMIQEFSRITPAY | not soluble |
| SEHWQAGRFIGQQTSARPSSKPLLAVQIDDLLTLASRFVGEERARQSFIRFAYRQGKGFNPNQNADGDWIEHTERLLAGVLGTSSTRAVVKAAIEGRDMQLEDVVRIADEASEVLQFNRALLQGAIENINQGISVVDQNL | not soluble |
| MRVLITGATGGLGGAFARALKGHDLLLSGRRAGALAELAREVGARALPADLADELEAKALLEEAGPLDLLVHAVGKAGRASVREAGRDLVEEMLAAHLLTAAFVLKHARFQKGARAVFFGAYPRYVQVPGFAAYAAAKGALEAYLEAARKELLREGVHLVLVRLPAVATGLWAPLGGPPKGALSPEEAARKVLEGLFREPVPALLEV | soluble |
| MTAEPMSESKLNTLVQKLHDFLAHSSEESEETSSPPRLAMNQNTDKISGSGSNSDMMENSKEEGTSSSEKSKSSGSSRSKRKPSIVTKYVESDDEKPLDDETVNEDASNENSENDITMQSLPKEDGLHGIVSCTACGQQVNHFQKDSIYRHPSLQVLICKNCFKYYMSDDISRDSDGMDEQCRWCAEGGNLICCDFCHNAFCKKCILRNLGRKELSTIMDENNQWYCYICHPEPLLDLVTACNSVFENLEQLLQQNKKKIKVDSEKSNKVYEHTSRFSPKKTSSNCNGEEKKLDDSCSGSVTYSYSALIVPKEMIKKAKKLIETTANMNSSYVKFLKQATDNSEISSATKLRQLKAFKSVLADIKKAHLALEEDLNSEFRAMDAVNKEKNTKEHKVIDAKFETKARKGEKPCALEKKDISKSEAKLSRKQVDSEHMHQNVPTEEQRTNKSTGGEHKKSDRKEEPQYEPANTSEDLDMDIVSVPSSVPEDIFENLETAMEVQSSVDHQGDGSSGTEQEVESSSVKLNISSKDNRGGIKSKTTAKVTKELYVKLTPVSLSNSPIKGADCQEVPQDKDGYKSCGLNPKLEKCGLGQENSDNEHLVENEVSLLLEESDLRRSPRVKTTPLRRPTETNPVTSNSDEECNETVKEKQKLSVPVRKKDKRNSSDSAIDNPKPNKLPKSKQSETVDQNSDSDEMLAILKEVSRMSHSSSSDTDINEIHTNHKTLYDLKTQAGKDDKGKRKRKSSTSGSDFDTKKGKSAKSSIISKKKRQTQSESSNYDSELEKEIKSMSKIGAARTTKKRIPNTKDFDSSEDEKHSKKGMDNQGHKNLKTSQEGSSDDAERKQERETFSSAEGTVDKDTTIMELRDRLPKKQQASASTDGVDKLSGKEESFTSLEVRKVAETKEKSKHLKTKTCKKVQDGLSDIAEKFLKKDQSDETSEDDKKQSKKGTEEKKKPSDFKKKVIKMEQQYESSSDGTEKLPEREEICHFPKGIKQIKNGTTDGEKKKKK | soluble |
| ITERRQRQQRIEALHDTTRELMHVESREAAAELVVETARDLLGLPLSAVFLADESADALRPTAVTDQAQAIIDDHPTFSEGDSLVWEVFDSGEQRVFNDVSTHPNRYNPDTDVCSELLIPLGDHGVLIAASTDAAAFEDASVSLMRTLAANTEEALSRLDRQQELRTLTER | not soluble |
| GPGSMRISERAFMDIAIGTKAPRRIVFKLFPRKCPSAVKNFIELCSGNVSTDTYESGNRDKLISESALPQLTYKNSTFHRVEKGYLIQGGDIVTGRGTEQLSIYGGTFSAPEEVRASVFDKPGLVGTASSSPNAHGSQFFILTAKEANHLNGTCICFGQVADGLDVVQEIEQVPIDPSGFPSLKVSIVDCGVLE | soluble |
| MMKTLSPLKASLFAILASSTVLVTTVSAEPSQECDHPRSEFHKRGDRMGHDGMHKMFEGLELTDTQKADIKKLFAEQRAARSDDKPTKEERLARRAEMHALITAATFDETQAKALIGAQQEKRQAQAIERMKMQNQIYNLLTPEQQAKFKARFEAHTGKEPRSLEHHHHHH | not soluble |
| MIPVILSGGSGSRLWPLSRKQYPKQFLALTGDDTLFQQTIKRLAFDGMQAPLLVCNKEHRFIVQEQLEAQNLASQAILLEPFGRNTAPAVAIAAMKLVAEGRDELLLILPADHVIEDQRAFQQALALATNAAEKGEMVLFGIPASRPETGYGYIRASADAQLPEGVSRVQSFVEKPDEARAREFVAAGGYYWNSGMFLFRASRYLEELKKHDADIYDTCLLALERSQHDGDLVNIDAATFECCPDNSIDYAVMEKTSRACVVPLSAGWNDVGSWSSIWDVHAKDANGNVTKGDVLVHDSHNCLVHGNGKLVSVIGLEDIVVVETKDAMMIAHKDRVQDVKHVVKDLDAQGRSETQNHCEVYRPWGSYDSVDMGGRFQVKHITVKPGARLSLQMHHHRAEHWIVVSGTAQVTCDDKTFLLTENQSTYIPIASVHRLANPGKIPLEIIEVQSGSYLGEDDIERLEDVYGRTAEPALQVVAGSR | not soluble |
| SNASKEKREKLEAYQHLFYLLQTNPTYLAKLIFQMPQNKSTKFMDSVIFTLYNYASNQREEYLLLRLFKTALQEEIKSKVDQIQEIVTGNPTVIKMVVSFNRGARGQNALRQILAPVVKEIMDDKSLNIKTDPVDIYKSWVNQMESQTGEASKLPYDVTPEQALAHEEVKTRLDSSIRNMRAVTDKFLSAIVSSVDKIPYGMRFIAKVLKDSLHEKFPDAGEDELLKIIGNLLYYRYMNPAIVAPDAFDIIDLSAGGQLTTDQRRNLGSIAKMLQHAASNKMFLGDNAHLSIINEYLSQSYQKFRRFFQTACDVPELQDKFNVDEYSDLVTLTKPVIYISIGEIINTHTLLLDHQDAIAPEHNDPIHELLDDLGEVPTIESLIGESS | soluble |
| MSLSKNNETLEALSKEYRDTIPADLRKTNTFDWYLQQLYDEPKIARNAHQRVADMFDYYGKSYDEEAGVVEYELASEDPLHDGENTFYGRVIHEAMHEFVNKVKSGARGLGPEKRIKLLLGPVGSGKSDFDRQVRRYFEDYTSRDEGRMYTFRWTNLCDVIHDQDPADDVVRSPMNQDPLVLLPQAQRDKVIEDINAELDAPYTIRNEQSLDPASEFYMDRLLAEYDDDLQAVLENHVEIVRFVADENQRRGIETFEPKDKKNQDETELTGDVNYSKIAIYGESDPRAFDYSGAFCNANRGIFSGEELLKLQREFLYDFLHASQEQTIKPKNNPRIDIDQVIVGRTNMPEYRDKKGDEKMEAFNDRTKRIDFPYVLQYEAEANIYQKMLRNADLPDIQVEPHTLEMAGLFGVLTRIEEPDNESIDLVQKAKAYNGEIDEADDVDVKKLREEAEKMADIGEGMDGVSPRFIGDEIAEAIMDSMHRSRDFLSPLTTFNHLEGNLENHGSIDEESFSKYYRFLELVREEYKERAIEDVRHALAYDMDEIQRQGEKYMDHVMAYIDDATVEDELTGREQEPDEQFLRSVEEKLNLPEDRKDDFRQEVSNWVSRRAREGDTFNPQDNDRLRRALERKLWEDKKHNINFSALVSSSEMDDEERNQWVDALIEQGYSEEGAKEVLEFAGAEVAKSEMEEEGHHHHHH | soluble |
| FINNPNRHFANNYHFAKELALELKKQDVLELATAPSLQKRLRFYGIKNSNKFYLKALKQADKHDMDKKIVKVKLGKYEKVYQILNYD | not soluble |
| VHFHPFGNVNFYEMDWSLKGDLWAHDPVIAKEGSRWYVFHTGSGIQIKTSEDGVHWENMGWVFPSLPDWYKQYVPEKDEDHLWAPDICFYNGIYYLYYSVSTFGKNTSVIGLATNQTLDPRDPDYEWKDMGPVIHSTASDNYNAIAPNVVFDQEGQPWLSFGSFWSGIQLIQLDTETMKPAAQAELLTIASRGEEPNAIEAPFIVCRNGYYYLFVSFDFCCRGIESTYKIAVGRSKDITGPYVDKNGVSMMQGGGTILDEGNDRWIGPGHCAVYFSGVSAILVNHAYDALKNGEPTLQIRPLYWDDEGWPYLSV | soluble |
| MLENRLYKRSDFWKLFSRKYKLTKTIEHMMIDSIDIQENDRILEIGIGNGTVFKSITKKLKKGSLKSIDPSKRKVRQISRANRKNMGNGEVFHGYPEDIPFDDRTFNKVFSLHTVQSCTDIRLALREIYRVLQIDGRFYISIDTNTGEKEKTYIQLLKDQHFRDLSVIRRASCLCIVAVKLEHHHHHH | soluble |
| MSLNRRHTIKHNFPIVGHFRYLLEKIGPELRQYIVANNREELPFNRRQRSWIYASSKQENNYQGFGTDQDQNSPGFVFIKPSMFSYAVKEGHPNKKKPDFVPCAKIMGAYNKRRRPYRPYSIINISGMSYGSLSARAVESLNKGALKAGCYQNTGEGSLAPHHKHGADIMFHFGTGYFGVRDEHGNFSMSKLKALVEANPCIRAIDLKLSQGAKPGKGGVLPASKITQEIADIRGLPMGKDVISPAYHSVFSNVPEMMDFIENIAQETGLPVGFKSAVGKMEMWVELADRMLEKGYGPDFITIDGGEGGTGAAPPAFADHVSLPFVYAFSNVYKIFAERGLTDRIVFAASGKLGFPESSLMAFALGADVIHVAREAMMSIGCIQAQVCHNNTCPSGVATQNKWLQSGIDVPLKADRLYNYIKNLRKEVLEITHACGYEHPSQMTMTDIDISMGDNNLTMPLVDAYKYNKIPVNFESMQKLADEGHHHHHH | not soluble |
| MAHHHHHHMVGARFFFLNLPTSLSSASSLNRNKITSNRLPTDPSTPQWRDGYKLRKAVDDSSTQSTHRLPIYFCNAQRRVSSHSGRKTLLLATICIYDVGALDSFPIVLLVPLLNFIKSGLNEVDGSADCVDFSEYQCLTAPFPTTFRISLCPRLRFGGQFFFFCTHSRGDKNSRSILSHQRLAKFVPLFHTWYNEQDIS | not soluble |
| MAHHHHHHMTETVLRLGPQEYAHLTNLNTNTTELILGPLNRPVASHESVALPPTKFVVVPPTQYCLIANPHRTAVDPTTGIAQPVRDAYGQVQVRSGEEEYRWHVPPFPLYPEEAVVKLEDLKVLSARAALQIQVLAAYNVPACSASDSMPSPVRREAGERYSSAAPAPTTLALRSTSRRR | soluble |
| MGPMPKLADRKLCADQECSHPISMAVALQDYMAPDCRFLTIHRGQVVYVFSKLKGRGRLFWGGSVQGDYYGDLAARLGYFPSSIVREDQTLKPGKVDVKTDKWDFYCQ | soluble |
| FSIAVTGATGQLGGLVIQHLMAAVPASQIIAIVRNVEKASTLADQGVEVRHGDYNQPESLQKAFAGVSKLLFISGPHYDNTLLIVQHANVVKAARDAGVKHIAYTGYAFAEESIIPLAHVHLATEYATRTTNIPYTFLRNALYTDFFVNEGLRASTESGAIVTNAGSGIVNSVTRNELALAAATVLTEEGHENKTYNLVSNQPWTFDELAQILSEVSGKKVVHQPVSFEEEKNFMVNAGVPEPFAEITAAIYDAISKGEASKTSDDLQKLIGSLTPLKETVKQALKM | soluble |
| MSDVRPPLPPFTAETAAQKVRAAEDGWNSRDPQRVSLAYSPDSVWRNRSTFVRGRERIVEFLSGKWQREQEYRLIKELWAFTGNRIAVRFAYEWHDDSGNWFRSYGNENWAFDEQGLMYERHASINDLPIREDQRLFRWLLGRRPDNHPSLGELGLLEHHHHHH | soluble |
